The record followed here is US20250011388A1 (MONASH UNIVERSITY, published 2025).

B1: MonoCTLA4-Ig (Fc fusion)
chain: MHVAQPAVVLASSRGIASFVCEYASPGKATEVRVTVLRQADSQVTEVCAATYMMGNELTFLDDSICTGTSSGNQVNLTIQGLRAMDTGLYICKVELMYPPPYYLGIGNGTQIYVIAKEKKPSYNRGLCENAPNRARMQEPKSSDKTHTSPPSPAPELLGGSSVFLFPPKPKDTLMISRTPEVTCVVVDVSHEDPEVKFNWYVDGVEVHNAKTKPREEQYNSTYRVVSVLTVLHQDWLNGKEYKCKVSNKALPAPIEKTISKAKGQPREPQVYTLPPSRDELTKNQVNLTCLVKGFYPSDIAVEWESNGQPENNYKTTPPVLDSDGSFFLNSTLTVDKSRWQQGNVFSCSVMHEALHNHYTQKSLSLSPGK
notes: not shown: C-terminal FLAG tag
B2: human CD80 (hCD80) expressed on CHO cells (ligand, UniProt P33681 35-288, looked up)
chain: VIHVTKEVKEVATLSCGHNVSVEELAQTRIYWQKEKKMVLTMMSGDMNIWPEYKNRTIFDITNNLSIVILALRPSDEGTYECVVLKYEKDAFKREHLAEVTLSVKADFPTPSISDFEIPTSNIRRIICSTSGGFPEPHLSWLENGEELNAINTTVSQDPETELYAVSSKLDFNMTTNHSFMCLIKYGHLRVNQTFNWNTTKQEHFPDNLLPSWAITLISVNGIFVICCLTYCFAPRCRERRRNERLRRESVRPV
notes: whole, on cells; In most assays co-expressed with human PDL1 on the same CHO cell (cis-CD80:PDL1 clones, e.g. clone 12); also called B7-1; cis-CD80:PDL1 cells

The target in assay [1] is B2. Description: flow cytometry, anti-hIgG1 staining, cis-CD80:PDL1 CHO cells.
Description: After washing to remove excess fusion protein and antibody, cell pellets were resuspended in 100 μL of FACS buffer (PBS with 10% FCS). Flow cytometry was performed on viable cells (based on SSC/FSC) using a BD LSRII or LSRFortessa (BD Biosciences), and cell sorting was performed using a BD Influx (BD Biosciences) with a 100 μm nozzle. […] All antibodies were used at a final dilution of 1:200 from stock.
The target in assay [2] is T1, human PDL1 (hPDL1) expressed on CHO cells (human, UniProt Q9NZQ7 19-290).
T1 construct: whole, on cells; Expressed alone (parental PDL1 clone) or with CD80 (cis-CD80:PDL1 clones)
T1 sequence (Q9NZQ7 19-290): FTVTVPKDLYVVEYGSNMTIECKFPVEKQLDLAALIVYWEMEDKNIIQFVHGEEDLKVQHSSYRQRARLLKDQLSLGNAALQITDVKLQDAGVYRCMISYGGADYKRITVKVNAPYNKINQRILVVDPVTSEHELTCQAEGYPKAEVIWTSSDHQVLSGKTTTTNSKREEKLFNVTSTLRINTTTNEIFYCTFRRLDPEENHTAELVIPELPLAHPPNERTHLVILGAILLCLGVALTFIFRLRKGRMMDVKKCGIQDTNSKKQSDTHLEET
Description: flow cytometry, CHO cells co-expressing human CD80 and PDL1 (cis interaction).

Turning to B1, the binding result in assay [1] is reported as “binds”.
Regarding B2, the binding result in assay [2] was “binds”.
